# According to article PMC12959407 (Science Advances, 2026):
# “And” between values parts separate entries of the source, which are not always exact repeats. Identical values can stand only once.
# Target: the molecule itself
# Assay: cryo-EM structure; single-particle cryo-EM of purified proteins; mHsp60 10 uM and mHsp10 8 uM mixed in 20 mM tris-HCl pH 7.7, 20 mM KCl, 10 mM MgCl2, 2 mM ATP; incubated 30 s to 30 min before vitrification
protein,measurement,value
"recombinant WT human mitochondrial Hsp60 (mHsp60), mature form (natural protein, additional Gly-Ser kept at the N terminus after TEV cleavage; human mitochondrial Hsp60 without the 26-residue mitochondrial targeting signal of the 573-residue precursor; mature protein of 547 residues beginning with AKDVKFG; numbers count on: the mature protein; Forms heptameric rings; seven copies in single rings and half-footballs, fourteen in double rings, bullets and footballs; also called …) GSAKDVKFGADARALMLQGVDLLADAVAVTMGPKGRTVIIEQSWGSPKVTKDGVTVAKSIDLKDKYKNIGAKLVQDVANNTNEEAGDGTTTATVLARSIAKEGFEKISKGANPVEIRRGVMLAVDAVIAELKKQSKPVTTPEEIAQVATISANGDKEIGNIISDAMKKVGRKGVITVKDGKTLNDELEIIEGMKFDRGYISPYFINTSKGQKCEFQDAYVLLSEKKISSIQSIVPALEIANAHRKPLVIIAEDVDGEALSTLVLNRLKVGLQVVAVKAPGFGDNRKNQLKDMAIATGGAVFGEEGLTLNLEDVQPHDLGKVGEVIVTKDDAMLLKGKGDKAQIEKRIQEIIEQLDVTTSEYEKEKLNERLAKLSDGVAVLKVGGTSDVEVNEKKDRVTDALNATRAAVEEGIVLGGGCALLRCIPALDSLTPANEDQKIGIEIIKRTLKIPAMTIAKNAGVEGSLIVEKIMQSSSEVGYDAMAGDFVNMVEKGIIDPTKVVRTALLDAAGVASLLTTAEVVVTEIPKEEKDPGMGAMGGMGGGMGGGMF",stoichiometry N,7 and 14
